Reference: US20210214460A1 (AstraZeneca / MedImmune, published 2021)

Assays:
[1] = molecular target: T1, membrane-bound human BCMA (human, UniProt Q02223 1-184); assay: flow cytometry on MM.1S cells (endogenous BCMA), printed as apparent affinity
T1 construct: whole, on cells; also called huBCMA
T1 sequence (looked up): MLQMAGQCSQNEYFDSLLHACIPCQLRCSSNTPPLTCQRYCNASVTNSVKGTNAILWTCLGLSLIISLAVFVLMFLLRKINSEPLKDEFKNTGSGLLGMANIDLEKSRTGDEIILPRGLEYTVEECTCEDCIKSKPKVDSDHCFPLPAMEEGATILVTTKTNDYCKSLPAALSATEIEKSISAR
Method: (§1) Binding of 15B2GL, I09, L15, and J6M0 to membrane-bound human BCMA was evaluated using flow cytometry in multiple myeloma and plasma cell leukemia cell lines that endogenously express BCMA (NCI-H929 and MM.1S, respectively). Binding of 15B2GL, 109, L15 to membrane-bound human BCMA was also evaluated in Ad293 cells expressing human BCMA. Binding assays were performed by incubating the anti-BCMA antibodies with 200,000 cells for 30 minutes at 4° C. followed by two washes with PBS+2% FBS (FACS Buffer). A range of antibody concentrations were evaluated using a 12-point, 3-fold dilution series. Cells were then incubated with 5 ug/mL goat-anti human IgG-AF647 secondary antibodies (Thermo Fisher Scientific, Waltham, Mass.) at 4° C., followed by two washes in PBS+2% FBS. Cells were resuspended in 200 uL PBS+2% FBS+DAPI.
(§2) Fluorescence of live, single cells was measured using a BD Biosciences LSRII cytometer and BD FACSDiva™ software (BD Biosciences, San Jose, Calif.). Data were analyzed using FlowJo™ software (FlowJo, LLC, Ashland, Oreg.). Mean fluorescence intensity values were used to determine percentage bound and EC50 was determined using Prism™ software (GraphPad Software Inc, La Jolla, Calif.).

[2] = molecular target: T2, monomeric human sBCMA (GenScript) (human, UniProt Q02223 1-54); assay: SPR (ProteOn XPR36), antibody captured by anti-Fc, sBCMA 100-6.25 nM as analyte
T2 construct: extracellular domain; also called monomeric BCMA; monomeric (soluble) BCMA
T2 sequence (looked up): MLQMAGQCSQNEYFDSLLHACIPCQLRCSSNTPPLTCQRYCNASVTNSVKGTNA
Method: The binding of 15B2GL monoclonal antibody and optimized clones I09, L15, P10, N22, and M02 (described in Example 1) was assessed using monomeric human sBCMA (GenScript, Piscataway, N.J.) using a ProteOn™ XPR36 instrument (Bio-Rad, Hercules, Calif.). The binding of J6M0 also was assessed for comparison. Standard amine coupling was used to immobilize 25 μg/ml anti-Fc polyclonal antibody (Jackson ImmunoResearch, West Grove, Pa.) prepared in 10 mM sodium acetate buffer (pH 4.5) to the surface of a ProteOn™ GLC biosensor chip (Bio-Rad, Hercules, Calif.) pre-activated with 20 mM EDAC (1-ethyl-3-(3-dimethylaminopropyl)carbodiimide hydrochloride) and 5 mM Sulfo-NHS (N-hydroxysulfosuccinimide) at a density of ˜200-600 resonance units (RU). 15B2GL, I09, L15, P10, N22, M02, and J6M0 were subsequently injected at a concentration of 1 μg/ml for capture by the immobilized anti-Fc polyclonal antibody. The sensorgram was recorded by flowing two-fold serial dilutions of sBCMA prepared in PBS (pH 7.4) with 0.005% (v/v) Tween®-20, ranging from 100-6.25 nM, over the captured surface for 150 seconds at 75 μL/minute with dissociation time of 600 seconds. ProteOn™ data analysis software was used to analyze the data.

[3] = molecular target: T1, membrane-bound human BCMA; assay: flow cytometry on NCI-H929 cells (endogenous BCMA), printed as apparent affinity
Method: as §1, §2

[4] = molecular target: T1, membrane-bound human BCMA; assay: flow cytometry on Ad293 cells expressing human BCMA, printed as apparent affinity
Method: as §1, §2

[5] = molecular target: T3, TACI stably expressed on Ad293 cells (Homo sapiens (Human), UniProt O14836 1-293); assay: FACS on Ad293 cells stably expressing TACI, Alexa Fluor 647 secondary antibody, raw MFI (geo mean)
T3 sequence: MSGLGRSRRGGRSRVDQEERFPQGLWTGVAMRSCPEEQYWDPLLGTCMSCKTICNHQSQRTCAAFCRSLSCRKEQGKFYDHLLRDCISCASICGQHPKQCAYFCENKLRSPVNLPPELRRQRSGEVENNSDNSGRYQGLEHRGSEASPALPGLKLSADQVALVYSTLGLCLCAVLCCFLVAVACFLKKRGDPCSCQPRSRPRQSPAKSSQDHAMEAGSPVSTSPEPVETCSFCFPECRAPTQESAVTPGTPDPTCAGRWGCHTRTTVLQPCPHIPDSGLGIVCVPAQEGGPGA
Method: (§3) Antibodies 4679, 756, and 15B2GL (as described below) were analyzed by FACS to evaluate binding of antibodies to human BCMA, cynomolgus monkey BCMA, TACI, and BAFF-R using recombinant forms of the receptors stably expressed on Ad293 cells. Binding assays were performed by incubating antibodies 4679, 756, and 15B2GL with 200,000 cells at 4° C. for 45 minutes followed by two washes with PBS+2% FBS. Cells were then incubated with Alexa-Fluor® 647-labeled secondary antibodies at 4° C., followed by two washes in PBS+2% FBS. Anti-BAFF-R, anti-TACI, and anti-human BCMA-APC labeled antibodies were added according to manufacturer's recommended dilution in control wells. Cells were resuspended in 200 uL PBS+2% FBS+DAPI and antibody binding to live cells was analyzed using a Becton Dickinson™ Biosciences LSRII cytometer.

[6] = molecular target: T4, BAFF-R stably expressed on Ad293 cells (Homo sapiens (Human), UniProt Q96RJ3 1-184); assay: FACS on Ad293 cells stably expressing BAFF-R, Alexa Fluor 647 secondary antibody, raw MFI (geo mean)
T4 sequence: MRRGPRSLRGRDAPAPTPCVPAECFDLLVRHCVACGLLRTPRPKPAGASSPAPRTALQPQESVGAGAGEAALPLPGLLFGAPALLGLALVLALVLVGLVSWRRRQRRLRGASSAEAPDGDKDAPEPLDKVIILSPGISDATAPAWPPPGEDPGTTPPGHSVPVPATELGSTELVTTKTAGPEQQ
Method: as §3

[7] = molecular target: T1, membrane-bound human BCMA; assay: FACS on Ad293 cells stably expressing human BCMA, Alexa Fluor 647 secondary antibody, raw MFI (geo mean)
Method: as §3

[8] = molecular target: T5, cynomolgus monkey BCMA stably expressed on Ad293 cells (cynomolgus monkey, UniProt A0A2K5UD97 1-183); assay: FACS on Ad293 cells stably expressing cynomolgus BCMA, Alexa Fluor 647 secondary antibody, raw MFI (geo mean)
T5 construct: whole, on cells; also called cynoBCMA; Cyno BCMA
T5 sequence (A0A2K5UD97 entry or part of it): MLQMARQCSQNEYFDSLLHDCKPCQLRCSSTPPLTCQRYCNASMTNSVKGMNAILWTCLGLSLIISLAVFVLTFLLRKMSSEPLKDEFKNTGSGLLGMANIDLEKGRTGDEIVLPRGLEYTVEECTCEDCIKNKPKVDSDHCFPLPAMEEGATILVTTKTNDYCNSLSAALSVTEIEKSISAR
Method: as §3

B1: 15B2GL monoclonal antibody (antibody, V domains shown)
VH: EVQLVESGGGLVKPGGSLRLSCAASGFTFRSYSMNWVRQAPGKGLEWVSSISGSSNYIYYADSVKGRFTISRDNAKNSLYLQMNSLRAEDTAVYYCARGGNYYVEYFQYWGQGTLVTVSS
VL: EIVLTQSPGTLSLSPGERATLSCRASQYISSNYLAWYQQKPGQAPRLLIYGASNRATGIPDRFSGSGSGTDFTLTISRLEPEDFAVYYCQQYGSSPITFGQGTKLEIK
notes: Clone 15B2 was converted into human IgG1 and germlined at four residues (15B2GL); also called germlined 15B2
[1]
  EC50: 2.56 nM
[2]
  Kd: 60.7 nM
[3]
  EC50: 3.14 nM
[4]
  EC50: 3.87 nM
[5]
  binding result: no binding (tested: 100 ug/mL)
[6]
  binding result: no binding (tested: 100 ug/mL)
[7]
  EC50 (read off the curve): ~0.6 mg/L
[8]
  EC50 (read off the curve): ~1 mg/L
